Data set [1] relates to rat gastro-intestinal tract (closed loop). Kind of data set: Transport of preselected phage libraries in rat closed loop, detected by oligonucleotide hybridization/autoradiography. Conditions: in words. The procedure: Four preselected phage libraries, GI-D2H, GI-hSI, GI-HPT1 and GI-hPEPT1, were constructed by pooling phage previously selected by screening random phage display libraries D38 and DC43 using the HPT1, HPEPT1, D2H and hSI receptor or binding sites located in the GIT.
In particular, phages selected in vitro to each receptor or binding site located in the GIT were amplified in E. coli, PEG-precipitated, resuspended in TBS and the titer of each phage sample was determined by plaquing in E. coli as described above. […] Using the in situ loop model described above, 0.5 ml of preselected phage library solution was injected into the tied-off portion of the duodenum/jejunum. Blood was collected into heparinized tubes from the portal vein at 0, 15, 30, 45 and 60 minutes. A blood sample was taken from the systemic circulation at the end of the experiment. Similarly, the portion of the duodenum/jejunum used for phage injection was taken at the end of the experiment.
Thirty microliters of the collected portal blood (neat and 10^−2, 10^−1, 10^−6 dilutions) was added to 30 μl E. coli K91Kan cells (overnight culture) and incubated at 37° C. for 10 min. Subsequently, 3 ml of top agarose was added and the samples were plated for plaques. One hundred microliters of the collected portal blood was added to 100 μl of E. coli K91Kan. Five milliliters of LB medium was then added and the samples were incubated at 37° C. overnight in a rotating microbial incubator. The E. coli was removed by centrifugation and the amplified phage supernatant samples were either titered directly or were PEG-precipitated, resuspended in TBS and titered. Following titration of the amplified phage, samples containing phage from each set of animals were combined, adjusting the titer of each sample to the same titer, and were plated for plaques on LB agar lates (22 cm^2 square plates). Either 12,000 or 24,000 phage were lated for plaques.
Thirty microliters of the collected systemic blood (neat and 10^−2, 10^−1, 10^−6 dilutions) was added to E. coli K91Kan cells, incubated at 37° C. for 10 min. Three ml of top agarose was then added and the samples were plated for plaques. One hundred microliters of the collected systemic blood was added to 100 μl of E. coli K91Kan, incubated at 37° C. for 10 min. Five milliliters of LB medium was then added and the samples were incubated at 37° C. overnight in a rotating microbial incubator. The E. coli was removed by centrifugation and the amplified phage supernatant samples were either titered directly or were PEG-precipitated, resuspended in TBS and titered. Following titration of the amplified phage, samples containing phage from each set of animals were combined, adjusting the titer of each sample to the same titer, and were plated for plaques on LB agar plates (22 cm^2 square plates). Either 12,000 or 24,000 phage were plated for plaques.
The intestinal tissue portion used in each closed loop was excised. […] Alternatively, the tissue (in PBS supplemented with protease inhibitors) was homogenized in an Ultra Thorex homogenizer, washed 3 times in PBS containing protease inhibitors and resuspended in PBS containing protease inhibitors (Int-G samples). In each case, serial dilutions (neat and 10^−2, 10^−4, 10^−6 dilutions) of the tissue homogenate was titered in E. coli.
The phage amplified from the portal blood, systemic blood and intestinal tissue was plated for plaques. […] The filters were air-dried, and the DNA was cross-linked to the filter (UV crosslinking: 2 min, high setting). The filters were incubated in pre-hybridization buffer (6×SSC, 5× Denhardt's solution, 0.1% SDS, […] yeast tRNA) at 40° C.–45° C. for at least 60 min.
Synthetic oligonucleotides, (22-mers), complimentary to regions coding for the receptor or binding sites used to create the preselected phage library, were synthesized (see Table 14 below).

In data set [2] the target is bovine serum albumin (bovine) (UniProt P02769). In words: phage ELISA on coated BSA.
Chain of bovine serum albumin (bovine) (P02769 25-607 limits assumed): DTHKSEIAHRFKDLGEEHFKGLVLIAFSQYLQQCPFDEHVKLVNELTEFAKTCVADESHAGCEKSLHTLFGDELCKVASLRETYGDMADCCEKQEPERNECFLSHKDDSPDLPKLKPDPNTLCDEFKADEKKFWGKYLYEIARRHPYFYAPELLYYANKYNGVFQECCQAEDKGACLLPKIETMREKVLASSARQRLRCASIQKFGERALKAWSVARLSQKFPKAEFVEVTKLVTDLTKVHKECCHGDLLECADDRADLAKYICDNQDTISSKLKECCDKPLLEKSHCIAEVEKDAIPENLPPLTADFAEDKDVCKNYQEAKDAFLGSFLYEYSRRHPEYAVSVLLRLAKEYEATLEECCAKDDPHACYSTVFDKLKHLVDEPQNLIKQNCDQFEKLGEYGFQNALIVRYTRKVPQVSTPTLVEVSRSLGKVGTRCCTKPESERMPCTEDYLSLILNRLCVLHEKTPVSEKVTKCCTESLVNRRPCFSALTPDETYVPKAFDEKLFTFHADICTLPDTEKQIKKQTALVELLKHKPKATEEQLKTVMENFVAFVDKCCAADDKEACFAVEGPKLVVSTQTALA
For data set [3], the target named is T1, recombinant hPEPT1 receptor domain (human PEPT1, amino acid residues 391-571), His-tag fusion protein (human, UniProt P46059 391-571).
T1 construct: purified under denaturing conditions; coated on plates
T1 sequence: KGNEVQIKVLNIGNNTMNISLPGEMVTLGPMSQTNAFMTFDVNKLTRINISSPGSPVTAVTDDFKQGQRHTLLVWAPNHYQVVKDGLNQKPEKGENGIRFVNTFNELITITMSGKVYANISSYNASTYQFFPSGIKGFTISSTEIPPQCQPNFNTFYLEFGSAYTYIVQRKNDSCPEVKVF
Kind of data set: phage ELISA on coated hPEPT1. The protocol: (§1) 6.6. Receptor ELISA Procedure 96 well plates were coated overnight with GIT receptor, BSA and, optionally, IDE (insulin degrading enzyme, an irrelevant His-fusion protein)or hTF. The plates were blocked for one hour with 0.5% BSA-PBS. After clarification, the amplified phage were diluted 1:100 in 1% BSA plus 0.05% Tween 20 in PBS and added to the plates. Following incubation of the plates on a rotator for 1 to 2 hours, the plates were washed 5 times with 1% BSA plus 0.05% Tween 20 in PBS. […] After the plates were washed 5 times, as described above, TMB substrate was added to the wells. The plates were read at 650 nm absorbance.
(An ELISA detects its analyte on a solid surface through an enzyme-linked reagent.)

Data set [4] concerns the target T1, recombinant hPEPT1 receptor domain …. In words: phage ELISA, OD on hPEPT1 over OD on BSA. The procedure: as §1
Data set [5] addresses T2, recombinant hPEPT1 receptor domain (human PEPT1, amino acid residues 391-571), His-tag fusion protein (human) (UniProt P46059).
T2 sequence: T1 sequence
In words: phage ELISA on coated hPEPT1.

Data set [6] concerns the target T2, recombinant hPEPT1 receptor domain (human PEPT1, amino acid residues 391-571), His-tag fusion protein (human). In words: phage ELISA, OD on hPEPT1 over OD on BSA.

Ends that are not written are not given here.

Take “STPPSREAYSRPYSVDSDSDTNAKHSSHNRRLRTRSRPN (not fully specified) [PAX2]”: the “Presence in the portal or systemic circulation” value in data set [1] (HPT1 pool, PAX2 used at 4x concentration) was “found in the portal and systemic circulation”. Besides, in data set [1] (hPEPT1 pool), the “Binding to / presence in the intestine samples” value is listed as “not found” and the “Presence in the portal circulation” value is listed as “found”.

B1: phage PAX14 (peptide, not shown: large carriers)
peptide: RTFENDGLGVGRSIQKKSDRWYASHNIRSHFASMSPAGK
For B1, the OD in data set [2] worked out at 0.139 OD 650 nm.

B2: phage PAX18 (peptide)
peptide: SFLRFQSPRFEDYSRTISRLRNATNPSNVSDAHNNRALA
modifications: also: displayed as N-terminal pIII fusion on M13 phage
notes: M13 phage displaying this insert as N-terminal pIII fusion; whole phage in the ELISA; not shown: M13 phage particle / pIII display carrier (and vector flanks)
Regarding B2, the OD in data set [2] amounted to 0.087 OD 650 nm; in data set [3] it was 0.416 OD 650 nm. In addition, the PEPT1/BSA in data set [4] turned out to be 5 ratio.

B3: phage PAX40 (peptide)
peptide: RASTQGGRGVAPEFGASVLGRGCGSATYYTNSTSCKDAMGHNYS
modifications: cysteine pairing not given here; also: displayed as N-terminal pIII fusion on M13 phage
notes: as for B2
Consider B3, for which the OD in data set [2] was 0.076 OD 650 nm; in data set [3], 0.461 OD 650 nm. In addition, the PEPT1/BSA in data set [4] came out at 6 ratio.

B4: phage DAX24 (peptide)
peptide: RMEDIKNSGWRDSCRWGDLRPGCGSRQWYPSNMRSSRDYPAGGH
Molecule B4 registered an OD in data set [2] of 0.118 OD 650 nm.

B5: phage PAX45 (peptide)
peptide: SFQVYPDHGLERHALDGTGPLYAMPGRWIRARPQNRDRQ
modifications: also: displayed as N-terminal pIII fusion on M13 phage
notes: as for B2
B5: the OD in data set [2] was determined as 0.081 OD 650 nm; in data set [3] it was 0.419 OD 650 nm. In addition, in data set [4], the PEPT1/BSA worked out at 5 ratio.

B6: phage PAX38 (peptide, not shown: large carriers)
peptide: SSKVSSPRDPTVPRKGGNVDYGCGHRSSARMPTSALSSITKCYT
modifications: cysteine pairing not given here; also: displayed as N-terminal pIII fusion on M13 phage
Turning to B6, the results for the OD in data set [2] and in data set [5] were 0.064 OD 650 nm and 0.292 OD 650 nm, respectively. Also, in data set [6], the PEPT1/BSA stood at 5.

B7: phage P31 (peptide)
peptide: SARDSGPAEDGSRAVRLNGVENANTRKSSRSNPRGRRHP
modifications: also: displayed as N-terminal pIII fusion on M13 phage
notes: M13 phage displaying this insert as N-terminal pIII fusion; whole phage in the ELISA; not shown: M13 pIII coat protein and phage particle (display carrier)
B7: the OD was determined as 0.075 OD 650 nm in data set [2] and 0.807 OD 650 nm in data set [3]. The PEPT1/BSA in data set [4] amounted to 11 ratio.

B8: phage DAB18 (peptide)
peptide: RSSANNCEWKSDWMRRACIARYANSSGPARAVDTKAAP
In turn, B8 showed an OD in data set [2] of 0.085 OD 650 nm.

B9: phage P90 (peptide)
peptide: SSADAEKCAGSLLWWGRQNNSGCGSPTKKHLKHRNRSQTSSSSH
modifications: cysteine pairing not given here; also: displayed as N-terminal pIII fusion on M13 phage
notes: as for B7
On to B9, for which the values for the OD in data set [2] and in data set [3] were 0.107 OD 650 nm and 1.12 OD 650 nm, respectively. Moreover, the PEPT1/BSA in data set [4] was 9 ratio.

B10: phage PAX17 (peptide)
peptide: SQVDSFRNSFRWYEPSRALCHGCGKRDTSTTRIHNSPSDSYPTR
modifications: cysteine pairing not given here; also: displayed as N-terminal pIII fusion on M13 phage
notes: as for B2
As for B10, the OD in data set [2] was determined as 0.095 OD 650 nm; in data set [3], 0.514 OD 650 nm. For the same molecule, the PEPT1/BSA in data set [4] was 5 ratio.

B11: phage DCX26 (peptide)
peptide: SGRTTSEISGLWGWGDDRSGYGWGNTLRPNYIPYRQATNRHRYT
The molecule B11 returned an OD in data set [2] of 0.213 OD 650 nm.

B12: phage S22 (peptide)
peptide: SSSSDWGGVPGKVVRERFKGRGCGISITSVLTGKPNPCPEPKAA
On to B12, for which the OD in data set [2] was determined as 0.061 OD 650 nm.

B13: phage DAX15 (peptide)
peptide: SESGRCRSVSRWMTTWQTQKGGCGSNVSRGSPLDPSHQTGHATT
The molecule B13 displayed an OD in data set [2] of 0.101 OD 650 nm.

B14: phage PAX16 (peptide, not shown: large carriers)
peptide: SWTRWGKHTHGGFVNKSPPGKNATSPYTDAQLPSDQGPP
In data set [2], B14 registered an OD of 0.171 OD 650 nm.

B15: phage DCX45 (peptide)
peptide: SVGNDKTSRPVSFYGRVSDLWNASLMPKRTPSSKRHDDG
For B15, the OD in data set [2] was 0.075 OD 650 nm.

B16: phage DAB24 (peptide)
peptide: SKWSWSSRWGSPQDKVEKTRAGCGGSPSSTNCHPYTFAPPPQAG
In the case of B16, the OD in data set [2] came to 0.441 OD 650 nm.

B17: phage DCX33 (peptide)
peptide: RWNWTVLPATGGHYWTRSTDYHAINNHRPSIPHQHPTPI
Consider B17, for which the OD in data set [2] stood at 0.103 OD 650 nm.

B18: phage DAX23 (peptide)
peptide: REWRFAGPPLDLWAGPSLPSFNASSHPRALRTYWSQRPR
Consider B18, for which the OD in data set [2] turned out to be 0.153 OD 650 nm.

B19: phage DAB30 (peptide)
peptide: SGFWEFSRGLWDGENRKSVRSGCGFRGSSAQGPCPVTPATIDKH
In turn, B19 had an OD in data set [2] of 0.121 OD 650 nm.

B20: phage PAX35 (peptide)
peptide: RSITDGGINEVDLSSVSNVLENANSHRAYRKHRPTLKRP
modifications: also: displayed as N-terminal pIII fusion on M13 phage
notes: as for B2
Take B20: the OD in data set [2] was 0.065 OD 650 nm; in data set [3], 0.474 OD 650 nm. Besides, the PEPT1/BSA in data set [4] is 7 ratio.

B21: phage PAX46 (peptide)
peptide: SRCTDNEQCPDTGTRSRSVSNARYFSSRLLKTHAPHRP
modifications: cysteine pairing not given here; also: displayed as N-terminal pIII fusion on M13 phage
notes: as for B2
Turning to B21, the values for the OD in data set [2] and in data set [3] were 0.077 OD 650 nm and 0.429 OD 650 nm, respectively. For the same molecule, the PEPT1/BSA in data set [4] worked out at 6 ratio.

B22: phage DAX27 (peptide)
peptide: SHPWYRHWNHGDFSGSGQSRHTPPESPHPGRPNATI
As to B22, in data set [2], the OD was 0.424 OD 650 nm.

Source of the values: US7053177B1, “Random peptides that bind to gastro-intestinal tract (GIT) transport receptors and related methods” (Cytogen Corporation, priority 1997, dated 2006).
